Reference: publication doi:10.1101/2022.12.21.521423 (bioRxiv, 2022)

How the values were obtained:
HA-LRRC37B-LRR-ECTO = HA-LRRC37B-LRR-ECTO (human, UniProt Q96QE4 468-841); test: cell-surface binding assay
HA-LRRC37B-ECTO = HA-LRRC37B-ECTO (human, UniProt Q96QE4 28-905); test: cell-surface binding assay
Sequence of HA-LRRC37B-ECTO (Q96QE4 28-905): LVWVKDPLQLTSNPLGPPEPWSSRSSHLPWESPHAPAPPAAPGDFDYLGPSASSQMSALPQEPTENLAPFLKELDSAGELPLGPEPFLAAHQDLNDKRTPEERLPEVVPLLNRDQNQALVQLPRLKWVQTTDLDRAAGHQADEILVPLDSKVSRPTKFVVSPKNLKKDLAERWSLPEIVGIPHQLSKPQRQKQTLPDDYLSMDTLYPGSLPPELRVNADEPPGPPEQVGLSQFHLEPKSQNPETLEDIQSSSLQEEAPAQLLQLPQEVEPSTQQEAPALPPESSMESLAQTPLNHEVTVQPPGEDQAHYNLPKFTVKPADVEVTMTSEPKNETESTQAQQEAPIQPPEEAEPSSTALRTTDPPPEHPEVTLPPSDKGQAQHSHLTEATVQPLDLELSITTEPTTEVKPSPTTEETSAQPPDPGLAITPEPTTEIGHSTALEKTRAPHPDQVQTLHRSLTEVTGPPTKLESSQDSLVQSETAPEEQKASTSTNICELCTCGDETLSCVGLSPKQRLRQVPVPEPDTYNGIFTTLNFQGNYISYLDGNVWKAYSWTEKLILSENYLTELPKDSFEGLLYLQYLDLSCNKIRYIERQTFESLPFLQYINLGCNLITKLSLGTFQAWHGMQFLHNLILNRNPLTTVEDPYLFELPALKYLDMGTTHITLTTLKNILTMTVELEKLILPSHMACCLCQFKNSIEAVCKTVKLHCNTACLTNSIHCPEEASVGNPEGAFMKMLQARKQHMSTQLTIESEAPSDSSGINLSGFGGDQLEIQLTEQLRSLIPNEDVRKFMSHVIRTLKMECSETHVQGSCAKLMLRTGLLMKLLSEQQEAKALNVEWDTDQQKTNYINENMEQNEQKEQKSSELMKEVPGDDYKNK

Sequence of HA-LRRC37B-LRR-ECTO (Q96QE4 468-841): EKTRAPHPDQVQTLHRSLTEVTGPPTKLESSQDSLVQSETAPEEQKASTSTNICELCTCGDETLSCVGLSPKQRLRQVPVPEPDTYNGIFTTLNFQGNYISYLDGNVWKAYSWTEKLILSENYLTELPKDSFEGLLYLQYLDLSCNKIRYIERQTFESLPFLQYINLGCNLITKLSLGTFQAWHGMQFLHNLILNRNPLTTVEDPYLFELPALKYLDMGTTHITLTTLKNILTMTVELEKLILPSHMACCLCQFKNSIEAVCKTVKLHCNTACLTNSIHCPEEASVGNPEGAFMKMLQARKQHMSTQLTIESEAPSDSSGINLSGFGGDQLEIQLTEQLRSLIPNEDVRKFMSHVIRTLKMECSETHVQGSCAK

B1: FGF13A ExonS-biotin (peptide)
peptide: MAAAIASSLIRQKRQAREREKSNACKCVSSPSKGKTSCDKNKLNVFSRVKLFGSKKRRRRRPE
modifications: also: biotin (position not given here)
**Q.** Which Kd (HA-LRRC37B-LRR-ECTO) does the source give for B1 here?
**A.** The Kd was 1.18 ± 0.718 nM.

**Q.** What about the Kd (HA-LRRC37B-ECTO) of the same binder?
**A.** Its Kd is 2.29 ± 1.04 nM.
